What was measured:
[1] = target: the molecule itself; test: crystal structure; Aer2 1–172 mutant proteins; L44H by vapor diffusion, 1.5–1.7 M MgSO4, 0.1 M Tris pH 8.5, room temperature, space group P3(2)12; V33G in conditions and space group of the WT; molecular replacement
[2] = target: the molecule itself; test: pulsed dipolar ESR spectroscopy (PDS, double electron electron resonance); inter-subunit distances between MTSSL spin labels on one engineered Cys per subunit; 17.35 GHz; protein 25–50 µM

Row | Protein | binding result [1] | binding result [2]
1 | Aer2 1–172 L44H (domain or fragment, Aer2, soluble receptor of Pseudomonas aeruginosa, residues 1-172 (HAMP1, HAMP2, HAMP3); also called L44H HAMP1 mutant; source: purified as previously described for the WT protein [7], induction temperature reduced to 18°C) MGLFNAHAVAQQRADRIATLLQSFADGQLDTAVGEAPAPGYERHYDSLRALQRQLREQRAELQQVESLEAGLAEMSRQHEAGWIDQTIPAERLEGRAARIAKGVNELVAAHIAVKMKVVSVVTAYGQGNFEPLMDRLPGKKAQITEAIDGVRERLRGAAEATSAQLATAAYN | binds | 
2 | Aer2 1–172 V33G (domain or fragment, Aer2, soluble receptor of Pseudomonas aeruginosa, residues 1-172 (HAMP1, HAMP2, HAMP3); also called HR2 mutant of HAMP1; source: purified as previously described for the WT protein [7], induction temperature reduced to 18°C) MGLFNAHAVAQQRADRIATLLQSFADGQLDTAGGEAPAPGYERLYDSLRALQRQLREQRAELQQVESLEAGLAEMSRQHEAGWIDQTIPAERLEGRAARIAKGVNELVAAHIAVKMKVVSVVTAYGQGNFEPLMDRLPGKKAQITEAIDGVRERLRGAAEATSAQLATAAYN | binds | 
3 | H2C AS1 (Aer2 1–172 A81C, MTSSL spin-labeled) (domain or fragment, MTSSL spin label on the engineered Cys at 81, Aer2, soluble receptor of Pseudomonas aeruginosa, residues 1-172; source: Aer2 1–172 mutant proteins purified as previously described for the WT protein [7]; spin-labeled with MTSSL) MGLFNAHAVAQQRADRIATLLQSFADGQLDTAVGEAPAPGYERLYDSLRALQRQLREQRAELQQVESLEAGLAEMSRQHECGWIDQTIPAERLEGRAARIAKGVNELVAAHIAVKMKVVSVVTAYGQGNFEPLMDRLPGKKAQITEAIDGVRERLRGAAEATSAQLATAAYN |  | binds
4 | H1C AS1 (Aer2 1–172 D26C, MTSSL spin-labeled) (domain or fragment, MTSSL spin label on the engineered Cys at 26, Aer2, soluble receptor of Pseudomonas aeruginosa, residues 1-172; source: Aer2 1–172 mutant proteins purified as previously described for the WT protein [7]; spin-labeled with MTSSL) MGLFNAHAVAQQRADRIATLLQSFACGQLDTAVGEAPAPGYERLYDSLRALQRQLREQRAELQQVESLEAGLAEMSRQHEAGWIDQTIPAERLEGRAARIAKGVNELVAAHIAVKMKVVSVVTAYGQGNFEPLMDRLPGKKAQITEAIDGVRERLRGAAEATSAQLATAAYN |  | binds

Reference: PMC3570549, “HAMP Domain Conformers That Propagate Opposite Signals in Bacterial Chemoreceptors” (PLoS Biology, 2013)
